Assay results taken from article PMC5356885 (Oncotarget, 2016).

B1: histidine-tagged recombinant v-Myc bHLH-LZ fragment for NMR (131-amino acid construct, S314-A416) (domain or fragment)
chain: SNNRKCSSPRTLDSEENDKRRTHNVLERQRRNELKLRFFALRDQIPEVANNEKAPKVVILKKATEYVLSLQSDEHKLIAEKEQLRRRREQLKHNLEQLRNSRA
B2: tag-free Myc (v-Myc bHLH-LZ fragment without the histidine tag) (domain or fragment)
chain: B1 chain
modifications: ^15N-labelled

Target: T1, recombinant CaM for NMR (pETM11-CaM, tag cleaved) (UniProt P62149 1-149)
T1 construct: also called ^14N-CaM; ^15N-CaM
Experiment: NMR titration
Conditions: both partners purified

Binder | binding result
B1 | binds
B2 | binds
